{"source": "IntAct's records for PubMed 19787799", "parents": {"B1": {"name": "Protein ERGIC-53 (Homo sapiens), P49257 (parent)", "chain": "MAGSRQRGLRARVRPLFCALLLSLGRFVRGDGVGGDPAVALPHRRFEYKYSFKGPHLVQSDGTVPFWAHAGNAIPSSDQIRVAPSLKSQRGSVWTKTKAAFENWEVEVTFRVTGRGRIGADGLAIWYAENQGLEGPVFGSADLWNGVGIFFDSFDNDGKKNNPAIVIIGNNGQIHYDHQNDGASQALASCQRDFRNKPYPVRAKITYYQNTLTVMINNGFTPDKNDYEFCAKVENMIIPAQGHFGISAATGGLADDHDVLSFLTFQLTEPGKEPPTPDKEISEKEKEKYQEEFEHFQQELDKKKEEFQKGHPDLQGQPAEEIFESVGDRELRQVFEGQNRIHLEIKQLNRQLDMILDEQRRYVSSLTEEISKRGAGMPGQHGQITQQELDTVVKTQHEILRQVNEMKNSMSETVRLVSGMQHPGSAGGVYETTQHFIDIKEHLHIVKRDIDNLVQRNMPSNEKPKCPELPPFPSCLSTVHFIIFVVVQTVLFIGYIMYRSQQEAAAKKFF", "partner": "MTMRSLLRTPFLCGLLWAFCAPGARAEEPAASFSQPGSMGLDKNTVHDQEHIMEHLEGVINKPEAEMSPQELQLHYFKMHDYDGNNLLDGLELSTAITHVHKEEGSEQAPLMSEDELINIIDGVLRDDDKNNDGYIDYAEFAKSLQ"}}, "data": [{"variants_of": "B1", "conditions": "with mcfd2_human MCFD2, Q8NI22", "values": [{"variant": "W67S", "effect of a mutation on the interaction": "disrupting interaction strength"}]}]}
